Experimental data published in patent US20230106715A1 (BIOSION, published 2023).
Read-outs that look alike come from different tables or passages of the source.

What was measured:
[1] = biological target: T1, mouse Siglec15-his protein (mouse); assay: indirect ELISA on coated mouse Siglec15-his
T1 construct: In house made
T1 chain: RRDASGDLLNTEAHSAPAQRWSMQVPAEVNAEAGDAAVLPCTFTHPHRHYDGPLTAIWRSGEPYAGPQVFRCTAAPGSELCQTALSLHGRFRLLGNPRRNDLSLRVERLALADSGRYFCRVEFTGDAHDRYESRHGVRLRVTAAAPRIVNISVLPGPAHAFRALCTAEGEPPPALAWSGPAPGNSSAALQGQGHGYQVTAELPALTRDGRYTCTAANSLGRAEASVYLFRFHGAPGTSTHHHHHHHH
Procedure: (§1) The anti-Siglec15 antibodies' cross-reactions to cynomolgus or mouse Siglec15 proteins were measured. Briefly, 96-well micro plates were coated with 100 μl of 2 μg/ml cynomolgus Siglec15-his protein (in house made with SEQ ID NO: 21), or 2 μg/ml mouse Siglec15-his protein (in house made with SEQ ID NO: 22) in carbonate/bicarbonate buffer (pH 9.6) for 2 hours at 37° C. ELISA plates were washed once with wash buffer (PBS+0.05% v/v Tween-20, PBST) and then blocked with 200 μl/well blocking buffer (5% w/v non-fatty milk in PBST) overnight at 4° C. Plates were washed 4 times and incubated with 100 μl serially diluted anti-Siglec15 antibodies of the disclosure or controls (starting at 66.7 nM, 5-fold serial dilution in PBST with 2.5% w/v non-fatty milk) for 40 minutes at 37° C. ELISA plates were washed 4 times again and incubated with Peroxidase AffiniPure Goat Anti-Human IgG, F(ab)₂ fragment specific (1:5000 dilution in PBST buffer, Jackson Immunoresearch, Cat #109-035-097, 100 μl/well) for 40 minutes at 37° C. After a final wash, plates were incubated with 100 μl/well TMB (Innoreagents, Cat #TMB-S-002). The reaction was stopped 4 minutes later at room temperature with 50 μl 1M H₂SO₄, and the absorbance of each well was read on a microplate reader using dual wavelength mode with 450 nm for TMB and 630 nm as the reference wavelength, then the OD (450-630) values were plotted against antibody concentration. Data was analyzed using Graphpad Prism software and EC₅₀ values were reported.

[2] = biological target: T2, human Siglec15-Fc protein (human); assay: competitive ELISA: coated human Siglec15-Fc, blocked ligand biotin-labeled human LRRC4C-Fc
T2 construct: In house made; also called recombinant human Siglec15 protein with human IgG1 Fc at the C-terminus
Procedure: (§2) Serially diluted anti-Siglec15 antibodies or the controls (starting at 66.67 nM with a 5-fold serial dilution) in PBST with 2.5% w/v non-fatty milk were added to the Siglec15-Fc bound plates, 100 μl per well, and incubated with the human Siglec15-Fc protein at 37° C. for 40 minutes. Plates were washed 4 times again using wash buffer, then added and incubated for 40 minutes at 37° C. with 100 μl/well 290 ng/ml biotin-labeled human LRRC4C-Fc protein (prepared in-house with SEQ ID NO: 23). Plates were washed again using wash buffer. Thereafter, the plates were added with 100 μl/well streptavidin conjugated HRP (1:5000 dilution in PBST buffer, Jackson Immunoresearch, Cat #016-030-084) and incubated for 40 minutes at 37° C. Plates were washed again using wash buffer. Finally, TMB was added and the reaction was stopped using 1M H₂SO₄, and the absorbance of each well was read on a microplate reader using dual wavelength mode with 450 nm for TMB and 630 nm as the reference wavelength, then the OD (450-630) values were plotted against antibody concentration. Data was analyzed using Graphpad Prism software and IC₅₀ values were reported.
Target sequence in this assay (chain, as listed by the source limits assumed): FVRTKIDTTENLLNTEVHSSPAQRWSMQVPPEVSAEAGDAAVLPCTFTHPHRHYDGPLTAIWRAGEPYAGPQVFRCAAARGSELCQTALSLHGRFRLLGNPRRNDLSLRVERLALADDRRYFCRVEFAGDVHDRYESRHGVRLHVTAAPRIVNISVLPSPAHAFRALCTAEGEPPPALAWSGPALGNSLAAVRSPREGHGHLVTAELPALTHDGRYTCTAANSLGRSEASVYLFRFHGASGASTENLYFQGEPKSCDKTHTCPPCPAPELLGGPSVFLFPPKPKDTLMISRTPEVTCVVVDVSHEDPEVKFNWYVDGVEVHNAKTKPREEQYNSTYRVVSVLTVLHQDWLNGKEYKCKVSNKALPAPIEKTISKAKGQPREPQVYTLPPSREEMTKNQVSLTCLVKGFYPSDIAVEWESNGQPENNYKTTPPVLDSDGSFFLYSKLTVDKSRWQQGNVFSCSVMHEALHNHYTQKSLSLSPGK

[3] = biological target: T2, human Siglec15-Fc protein; assay: as above; remark: listed apart in the source
Procedure: as §2

[4] = biological target: T1, mouse Siglec15-his protein; assay: indirect ELISA on coated mouse Siglec15-his
Procedure: as §1

[5] = biological target: T3, recombinant human Siglec15-his protein (human, UniProt Q6ZMC9 20-263); assay: capture ELISA, captured antibody, biotin-labeled human Siglec15-his in solution
T3 construct: In house made; Biotin-labeled in the capture ELISA
T3 sequence: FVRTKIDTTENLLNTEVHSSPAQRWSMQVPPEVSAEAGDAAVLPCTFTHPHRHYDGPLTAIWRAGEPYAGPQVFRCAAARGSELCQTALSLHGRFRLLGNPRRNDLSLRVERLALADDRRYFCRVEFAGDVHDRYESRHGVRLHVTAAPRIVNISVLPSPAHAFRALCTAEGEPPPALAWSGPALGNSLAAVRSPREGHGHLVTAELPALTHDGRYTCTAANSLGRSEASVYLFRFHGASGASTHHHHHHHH
Procedure: Briefly, 96-well plates were coated with 100 μl of 2 μg/ml AffiniPure Goat Anti-Human IgG F(ab′)₂ fragment specific (Jackson Immuno Research, Cat #109-005-097) in PBS for 2 hours at 37° C. Plates were washed once with wash buffer (PBS+0.05% v/v Tween-20, PBST) and then blocked with 200 μl blocking buffer (5% w/v non-fatty milk in PBST) overnight at 4° C. Plates were washed 4 times and respectively incubated with 100 μl serially diluted anti-Siglec15 antibodies of the disclosure, the benchmark and hIgG (human immunoglobulin (pH4) for intravenous injection, Hualan Biological Engineering Inc.), 5-fold dilution in 2.5% w/v non-fatty milk in PBST starting at 66.7 nM, for 40 minutes at 37° C., and then washed 4 times again. Plates containing captured antibodies were incubated with 100 μl biotin-labeled human Siglec15-his protein (in house made with SEQ ID NO: 20, 145 ng/ml in 2.5% w/v non-fatty milk in PBST) for 40 minutes at 37° C., washed 4 times, and incubated with streptavidin conjugated HRP (1:10000 dilution in PBST, Jackson Immuno Research, Cat #016-030-084, 100 μl/well) for 40 minutes at 37° C. After a final wash, plates were incubated with 100 μl/well ELISA substrate TMB (Innoreagents, Cat #TMB-S-002). The reaction was stopped in 4 minutes at room temperature with 50 μl/well 1M H₂SO₄, and the absorbance of each well was read on a microplate reader using dual wavelength mode with 450 nm for TMB and 630 nm as the reference wavelength, then the OD (450-630) values were plotted against antibody concentration. Data was analyzed using Graphpad Prism software and EC₅₀ values were reported.

Row | Binder | EC50 [1] | IC50 [2] | IC50 [3] | EC50 [4] | EC50 [5]
1 | A2A5C7E8 (antibody, V domains shown, Fully human antibody from transgenic mouse hybridoma; also called A2A5C7E8-1) VH: EVQLVQSGAEVKKPGESLRISCKGSGYSFTTYWISWVRQMPGKGLEWMGLIDPSDSYTNYSPSFQGHVTISTDKSISTAYLQWSSLKASDTAMYYCARGGYYGSEEDYWGQGTLVTVSS VL: EIVLTQSPGTLSLSPGERATLSCRASQSVSSSRLAWFQQKSGQAPRLLIFDASSRATGIPDRFSGSGSGTDFTLTISRLEPEDFAVYYCQQYGSSPRTFGQGTKVEFK | 0.139 nM | 0.394 nM | 0.84 nM | 0.26 nM | –
2 | A2A5C7E8-2 (antibody, human IgG1, kappa, V domains shown, Variant of A2A5C7E8 modified in VH CDR2 (X1 = E)) VH: EVQLVQSGAEVKKPGESLRISCKGSGYSFTTYWISWVRQMPGKGLEWMGLIDPSESYTNYSPSFQGHVTISTDKSISTAYLQWSSLKASDTAMYYCARGGYYGSEEDYWGQGTLVTVSS VL: EIVLTQSPGTLSLSPGERATLSCRASQSVSSSRLAWFQQKSGQAPRLLIFDASSRATGIPDRFSGSGSGTDFTLTISRLEPEDFAVYYCQQYGSSPRTFGQGTKVEFKR | 0.151 nM | 0.446 nM | – | – | –
3 | A2A5C7E8-3 (antibody, human IgG1, kappa, V domains shown, Variant of A2A5C7E8 modified in VH CDR2 (X2 = K)) VH: EVQLVQSGAEVKKPGESLRISCKGSGYSFTTYWISWVRQMPGKGLEWMGLIDPSDSYTNYSPSFKGHVTISTDKSISTAYLQWSSLKASDTAMYYCARGGYYGSEEDYWGQGTLVTVSS VL: EIVLTQSPGTLSLSPGERATLSCRASQSVSSSRLAWFQQKSGQAPRLLIFDASSRATGIPDRFSGSGSGTDFTLTISRLEPEDFAVYYCQQYGSSPRTFGQGTKVEFKR | 0.159 nM | 0.546 nM | – | – | –
4 | A1E10G7H9 (antibody, V domains shown, Fully human antibody from transgenic mouse hybridoma) VH: QVQLQESGPGLVKPSGTLSLTCAVSGGSISSSNWWHWVRQPPGKGLEWIGEIYHSGNTNYKPSLKSRVTISVDKSKNQFSLKLSSVTAADTAVYYCARDEGNGWSNAFDIWGQGTMVTVSS VL: ENVLTQSPGTLSLSPGERVTLSCRASQSVSSSYLAWYQQKPGQAPRFLIYGASGGATGIPDRFSGSGSGTDFTLTISRLEPEDFAVYYCQQYGSSPITFGQGTRLEIK | – | – | 1.24 nM | 0.329 nM | –
5 | B2D7H7A3C1 (antibody, V domains shown, Mouse monoclonal antibody from hybridoma; also called mouse B2D7H7A3C1) VH: QVQLQQSGAELVRPGTSVQMSCKAAGYTFTNYWIGWVKQRPGHGLEWVGDIHPGINYTNNNEKFRGKATLTADTSSNTAYMQLRGLTSDDSAIYYCARVDYDYDGSYIMDYWGQGTSVTVSS VL: QIVLSQSPALLSASPGEKVTMTCRASSSVSYMYWYQQKPGSSPKPWIYATSNLTSGVPARFSGSGSGTSYSLTISRVEAEDAATYFCQQWNSKPWTFGGGSKLEIR | – | – | – | – | 0.101 nM
6 | B2H2H1H7 (antibody, V domains shown, Mouse monoclonal antibody from hybridoma; also called mouse B2H2H1H7; B2H2H1A7) VH: QVQLQQSGAELVRPGTSVQMSCKAAGYTFTNYWIGWVKQRPGHGLEWVGDIHPGINYTNNNEKFRGKATLTADTSSSTAYMQLRGLTSDDSAIYYCARVDYDYDGSYIMDYWGQGTSVTVSS VL: QIILSQSPALLSASPGEKVTMTCRASSSVSYMYWYQQKPGSSPKPWIYATSNLTSGVPARFSGSGSGTSYSLTISRVEAEDAATYFCQQWNSKPWTFGGGSRLEIR | – | – | – | – | 0.0937 nM
7 | B2G12H3E8 (antibody, V domains shown, Mouse monoclonal antibody from hybridoma; also called mouse B2G12H3E8) VH: QVQLKQSGAELVRPGTSVQMSCKAVGYTFTNYWIGWVKQRPGHGLEWVGDIHPGINYTNNNEKFRGKATLTADTSSSTAYMQLRGLTSDDSAIYYCARVDYDYDGSYIMDYWGQGTSVTVSS VL: QIVLSQSPALLSASPGEKVTMTCRASSSVSYMYWYQQKPGSSPKPWIYATSNLTSGVPARFSGSGSGTSYSLTISRVEAEDAATYFCQQWNSKPWTFGGGSKLEIR | – | – | – | – | 0.0859 nM
8 | anti-Siglec15 benchmark (ch5G12) (antibody, human IgG1, kappa, V domains shown, ch5G12 (US 20190202912A1); also called BM; Siglec15-ch5G9) VH: QVQLQQPGAELVKPGASVKMSCKASGYTFTSYWITWVIQRPGQGLEWIGDIYCGSDTMHYNEKFKNKATLTVDTSSSTAYMQLSSLTSEDSAVYYCARWWDYGSSYDYFDYWGQGTTLTVSS VL: DIKMTQSPSSMYASLGERVTITCKASQDINSYLSWFQQKPGKSPKTLIYRANRLVDGVPSRFSGSGSGQDYSLTISSLEYEDMGIYYCLQYDEFPYTFGGGTKLEIKR | 0.276 nM | 0.674 nM | 0.751 nM | 0.361 nM | 1.64 nM
